According to patent US20030059769, “High affinity nucleic acid ligands to lectins” (published 2003):

How the values were obtained:
L-selectin (LS-Rg) [1] = target: T1, L-selectin (LS-Rg) (Homo sapiens, UniProt P14151 P14151:39-332); assay: filter; room temperature; Table 13 prints 110 nM (probably pM), 380 pM at 37 C; details: tags: human IgG2 Fc fusion; chain copies: 2 (stated dimer)
T1 sequence: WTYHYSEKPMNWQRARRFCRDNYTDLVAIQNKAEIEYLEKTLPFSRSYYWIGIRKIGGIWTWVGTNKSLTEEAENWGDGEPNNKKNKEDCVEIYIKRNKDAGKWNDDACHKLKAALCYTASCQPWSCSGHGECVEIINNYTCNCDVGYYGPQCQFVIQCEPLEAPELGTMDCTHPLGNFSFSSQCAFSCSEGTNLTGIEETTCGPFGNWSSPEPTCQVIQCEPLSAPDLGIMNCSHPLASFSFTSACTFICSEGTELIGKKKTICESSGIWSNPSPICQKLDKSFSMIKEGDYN
Protocol: As described in SELEX Patent Applications and in Example 7, paragraph C, a nitrocellulose filter partitioning method was used to determine the affinity of ssDNA ligands for LS-Rg and for other proteins. For these experiments a Gibco BRL 96 well manifold was substituted for the 12 well Millipore manifold used in Example 7 and radioactivity was determined with a Fujix BAS100 phosphorimager. Bindin, data were analyzed as described in Example 7, paragraph C.

E-selectin (ES-Rg) [2] = target: T2, E-selectin (ES-Rg) (Homo sapiens, UniProt P16581 P16581:22-556); assay: filter; specificity control; details: tags: human IgG1 Fc fusion; chain copies: dimer (inferred); label: 32P
T2 sequence: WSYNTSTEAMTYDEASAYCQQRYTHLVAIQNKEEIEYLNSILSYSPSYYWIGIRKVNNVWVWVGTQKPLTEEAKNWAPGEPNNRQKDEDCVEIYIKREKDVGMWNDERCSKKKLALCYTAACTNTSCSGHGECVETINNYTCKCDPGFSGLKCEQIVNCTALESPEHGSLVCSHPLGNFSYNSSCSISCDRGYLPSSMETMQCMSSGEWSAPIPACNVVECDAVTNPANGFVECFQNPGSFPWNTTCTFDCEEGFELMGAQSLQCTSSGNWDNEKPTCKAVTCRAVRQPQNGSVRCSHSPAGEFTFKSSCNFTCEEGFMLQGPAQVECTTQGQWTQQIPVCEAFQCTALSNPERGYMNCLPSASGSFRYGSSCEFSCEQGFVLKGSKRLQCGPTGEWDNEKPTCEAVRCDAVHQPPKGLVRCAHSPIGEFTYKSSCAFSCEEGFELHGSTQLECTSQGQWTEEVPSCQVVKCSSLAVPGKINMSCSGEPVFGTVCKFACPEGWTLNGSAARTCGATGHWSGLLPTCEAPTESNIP

P-selectin (PS-Rg) [3] = target: T3, P-selectin (PS-Rg) (Homo sapiens, UniProt P16109 P16109:42-321); assay: filter; 37 C; 0.01 nM at 4 C; details: tags: human IgG1 Fc fusion; chain copies: dimer; label: 32P
T3 sequence (P16109 42-321, one chain of several): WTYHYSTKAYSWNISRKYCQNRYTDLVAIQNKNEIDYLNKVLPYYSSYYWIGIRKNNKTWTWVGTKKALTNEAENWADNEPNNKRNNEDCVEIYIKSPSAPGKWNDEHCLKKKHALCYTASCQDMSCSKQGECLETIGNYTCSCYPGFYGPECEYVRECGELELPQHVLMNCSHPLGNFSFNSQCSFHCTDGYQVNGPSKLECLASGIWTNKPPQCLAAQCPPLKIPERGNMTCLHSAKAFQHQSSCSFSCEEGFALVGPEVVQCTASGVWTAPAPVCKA

CD22beta (CD22b-Rg) = CD22beta (CD22b-Rg) (UniProt P20273 P20273:20-687); assay: filter; no binding above background; details: tags: human IgG1 Fc fusion; chain copies: 2 (inferred)
P-selectin (PS-Rg) [4] = target: T3, P-selectin (PS-Rg); assay: inhibition; sialyl-LewisX; details: tags: human IgG Fc fusion; chain copies: 2 (stated dimer)
Protocol: The ability of evolved RNA pools or cloned ligands to inhibit the binding of PS-Rg to sialyl-Lewis^x was tested in competitive ELISA assays (C. Foxall et al., 1992, supra). For these assays, the wells of Corning (25801) 96 well microtiter plates were coated with 100 ng of a sialyl-Lewis^x/BSA conjugate, air dried overnight, washed with 300 μl of PBS(−) and then blocked with 1% BSA in HSMC for 60 min at room temperature. RNA ligands were incubated with PS-Rg in HSMC/1% BSA at room temperature for 15 min. After removal of the blocking solution, 50 μl of PS-Rg (10 nM) or a PS-Rg (10 nM)/RNA ligand mix was added to the coated, blocked wells and incubated at room temperature for 60 minutes. The binding solution was removed, wells were washed with 300 μl of PBS(−) and then probed with HRP conjugated anti-human IgG, at room temperature to quantitate PS-Rg binding. After a 30 minute incubation at room temperature in the dark with OPD peroxidase substrate (Sigma P9187), the extent of PS-Rg binding and percent inhibition was determined from the OD₄₅₀.

L-selectin (LS-Rg) [5] = target: T1, L-selectin (LS-Rg); assay: filter; affinity reduction versus full length LF1514; details: tags: human IgG2 Fc fusion; chain copies: 2 (stated dimer)
Protocol: (§1) As described in SELEX Patent Applications, a nitrocellulose filter partitioning method was used to determine the affinity of RNA ligands for LS-Rg and for other proteins. Filter discs (nitrocellulose/cellulose acetate mixed matrix, 0.45 μm pore size, Millipore) were placed on a vacuum manifold and washed with 3 ml of SHMCK 140 buffer under vacuum. Reaction mixtures, containing ³²P labeled RNA pools and unlabeled LS-Rg, were incubated in SHMCK 140 for 10-20 min at 37° C., and then immediately washed with 3 ml SHMCK 140. The filters were air-dried and counted in a Beckman LS6500 liquid scintillation counter without fluor. Alternatively, binding studies employed 96 well micro-titer manifolds essentially as described in Example 13, paragraph E.
(§2) Predictions of minimal high affinity sequences for family 1 ligands can be made and serve as a partial test of the postulated secondary structure.

L-selectin (LS-Rg) [6] = target: T1, L-selectin (LS-Rg); assay: filter; truncate at base of lower stem; details: tags: human IgG2 Fc fusion; chain copies: dimer; hairpin
L-selectin (LS-Rg) [7] = target: T1, L-selectin (LS-Rg); assay: filter; affinity similar to full length LD227; details: tags: human IgG2 Fc fusion; chain copies: 2 (stated dimer)
L-selectin (LS-Rg) [8] = target: T1, L-selectin (LS-Rg); assay: filter; upper stem and loop only; details: tags: human IgG2 Fc fusion; chain copies: dimer; hairpin
Protocol: as §1, §2

[9] = target: T4, L-selectin on PBMC / lymphocytes (Homo sapiens, UniProt P14151 P14151:39-372); assay: flow; half-saturation on human lymphocytes; divalent cation dependent; details: label: 32P or 5'-fluorescein (cells); hairpin
T4 sequence: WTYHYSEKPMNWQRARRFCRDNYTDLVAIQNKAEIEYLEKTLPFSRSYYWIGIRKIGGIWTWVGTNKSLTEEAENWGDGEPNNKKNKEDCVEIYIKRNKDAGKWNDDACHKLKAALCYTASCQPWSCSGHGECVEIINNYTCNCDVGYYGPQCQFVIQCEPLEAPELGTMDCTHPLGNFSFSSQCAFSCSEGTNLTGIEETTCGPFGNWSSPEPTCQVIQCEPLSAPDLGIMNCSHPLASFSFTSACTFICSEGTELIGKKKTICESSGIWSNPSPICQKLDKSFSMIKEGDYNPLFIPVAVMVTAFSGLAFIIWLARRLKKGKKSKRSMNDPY
Excerpt: (§3) A variety of monomeric nucleic acid ligands and multivalent Complexes have been examined in flow cytometry.

L-selectin (LS-Rg) [10] = target: T1, L-selectin (LS-Rg); assay: inhibition; sialyl-LewisX competition ELISA; details: tags: human IgG2 Fc fusion; chain copies: 2 (stated dimer)
Protocol: SLe^X-BSA (Oxford GlycoSystems, Oxford, UK) in 1X PBS, without CaCl₂, and MgCl₂, (GIBCO/BRL) was immobilized at 100 ng/well onto a microtiter plate by overnight incubation at […]. The wells were blocked for 1 h with the assay buffer consisting of 20 mM HEPES, 111 mM NaCl, 1 mM CaCl₂, 1 mM MgCl₂, 5 mM KCl, 8.9 mM NaOH, final pH 8, and 1% globulin-free BSA (Sigma). The reaction mixtures, incubated for 90 min with orbital shaking, contained 5 nM L-Selectin-Rg, a 1:100 dilution of anti-human IgG-peroxidase conjugate (Sigma), and 0 - 50 ruM of competitor in assay buffer. After incubation, the plate was washed with BSA-free assay buffer to remove unbound chimera-antibody complex and incubated for 25 min with O-phenylenediamine dihydrochloride peroxidase substrate (Sigma) by shaking in the dark at 22°0 C. Absorbance was read at 450 nm on a Bio-Kinetics Reader, Model EL312e (Bio-Tek Instruments, Laguna Hills, Calif.). Values shown represent the mean ±s.e from duplicate, or triplicate, samples from one representative experiment.
Sialyl Lewis^X is the minimal carbohydrate ligand bound by selecting.

[11] = target: T4, L-selectin on PBMC / lymphocytes; assay: flow; half-saturation; details: label: labeled streptavidin
Excerpt: as §3

soluble L-selectin = target: T5, soluble L-selectin (Homo sapiens, UniProt P14151 P14151:39-332); assay: filter; binding undetectable; Table 16 sequence differs from SEQ 358; details: tags: R&D Systems
T5 sequence: T1 sequence

[12] = target: P-selectin on activated platelets (Homo sapiens, UniProt P16109 P16109:42-830); assay: flow; biotinylated, SA-PE; divalent cation dependent; blocked by G1 antibody; details: hairpin
P-selectin on activated platelets, sequence (P16109 42-830, one chain of several): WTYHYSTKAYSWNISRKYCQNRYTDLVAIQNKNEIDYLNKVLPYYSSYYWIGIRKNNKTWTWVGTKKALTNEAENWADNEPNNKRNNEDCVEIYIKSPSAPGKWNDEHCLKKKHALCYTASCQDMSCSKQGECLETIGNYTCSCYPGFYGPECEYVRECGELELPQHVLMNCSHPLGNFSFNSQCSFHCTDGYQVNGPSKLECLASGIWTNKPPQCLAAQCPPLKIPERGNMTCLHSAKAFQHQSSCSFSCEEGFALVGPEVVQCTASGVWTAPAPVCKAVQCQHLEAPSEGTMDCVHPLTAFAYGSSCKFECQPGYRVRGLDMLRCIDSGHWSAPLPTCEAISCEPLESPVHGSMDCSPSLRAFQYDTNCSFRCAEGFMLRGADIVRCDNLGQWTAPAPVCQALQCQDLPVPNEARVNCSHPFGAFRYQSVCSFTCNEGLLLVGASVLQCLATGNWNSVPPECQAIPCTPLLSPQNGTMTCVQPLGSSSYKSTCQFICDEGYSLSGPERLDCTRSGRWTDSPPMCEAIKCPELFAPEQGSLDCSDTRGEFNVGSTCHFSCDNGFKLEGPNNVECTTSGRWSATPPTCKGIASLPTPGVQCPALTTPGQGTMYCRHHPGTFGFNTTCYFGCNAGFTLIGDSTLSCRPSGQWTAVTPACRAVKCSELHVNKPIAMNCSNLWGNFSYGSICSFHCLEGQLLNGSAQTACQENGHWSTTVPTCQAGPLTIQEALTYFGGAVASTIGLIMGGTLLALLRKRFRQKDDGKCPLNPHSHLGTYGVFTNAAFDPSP
Protocol: To detect oligonucleotide ligand binding, 15 μl BB+ containing ligand conjugated to either FITC or biotin was incubated 20-30 minutes at 4° C. with 10 μl platelet suspension. The FITC-figand incubations were diluted to 200 μl with BB+ and analyzed on a FACSCaliber flow cytometer. The biotinylated-ligand reactions were incubated with streptavidin-phycoehrin (SA-PE) (Becton Dickinson) for 20 minutes at 4° C., before dilution and analysis. Wash steps with 500 μl BB+ and 700 ×g spins have been used without compromising the quality of the results.
Since the P-selectin ligands were isolated against purified protein, their ability to bind P-selectin presented in the context of a cell surface was determined in flow cytometry experiments with activated human platelets. Platelets were gated by side scatter and CD61 expression. […] The expression of P-selectin was monitored with anti-CD62P monoclonal antibody (Becton Dickinson).

P-selectin (PS-Rg) [13] = target: T3, P-selectin (PS-Rg); assay: filter; HSMC; SLeX IC50 2 nM; details: tags: human IgG1 Fc fusion; chain copies: dimer; hairpin
E-selectin (ES-Rg) [14] = target: T2, E-selectin (ES-Rg); assay: filter; specificity control; details: tags: human IgG1 Fc fusion; chain copies: dimer (inferred); label: 32P; remark: listed apart in the source
Protocol: The affinity of P-selectin ligands to ES-Rg, LS-Rg and CD22β-Rg were determined by nitrocellulose partitioning. […] In general, a ligand's affinity for ES-Rg and LS-Rg is at least 10⁴-fold lower than for PS-Rg. […] The specificity of oligonucleotide ligand binding contrasts sharply with the binding of cognate carbohydrates by the selectins and confirms the proposition that SELEX ligands will have greater specificity than carbohydrate ligands.

P-selectin (PS-Rg) [15] = target: T3, P-selectin (PS-Rg); assay: filter; 37 C, HSMC; details: tags: human IgG1 Fc fusion; chain copies: dimer; label: 32P
L-selectin (LS-Rg) [16] = target: T1, L-selectin (LS-Rg); assay: filter; 37 C; lacks 7-nt bulge; details: tags: human IgG2 Fc fusion; chain copies: dimer; label: 32P; hairpin lacking bulge
Protocol: as §1
These calculations assume two ligand binding sites per chimera.

L-selectin (LS-Rg) [17] = target: T1, L-selectin (LS-Rg); assay: filter; affinity similar to full length LD201; details: tags: human IgG2 Fc fusion; chain copies: 2 (stated dimer)

B1: LD233 (ssDNA)
DNA: CTACCTACGATCTGACTAGCCACGACAGAGAACAAGGCGTTAGACGTTATCCGACCACGGCTTACTCTCATGTAGTTCC
Work on B1 yielded a Kd (L-selectin (LS-Rg) [1]) of 0.12 nM.

B2: PA350 (ssRNA)
RNA: GGGAGACAAGAAUAAACGCUCAAGCCCCAAACGCAAGUGAGCAUCCGCAACAGGGAAGAAGACAGACGAUUGAUUCGACAGGAGGCUCACAACAGGC
modifications: 2'-NH2 on all C and U
B2 showed a Kd (E-selectin (ES-Rg) [2]) of 375 nM and a Kd (P-selectin (PS-Rg) [3]) of 0.06 nM.

B3: PA350 (ssRNA)
RNA: B2 RNA
modifications: 2'-NH2 C and U
B3 was tested, and the binding result (CD22beta (CD22b-Rg)) was “no binding” and the IC50 (P-selectin (PS-Rg) [4]) was 2 nM.

B4: LF1514T2 (ssRNA)
RNA: CUCAAAUUGCGUGUUUUCAAGCA
modifications: 2'-F C and U
B4 was tested, and the binding signal (L-selectin (LS-Rg) [5]) was ≥ 100 fold.

B5: LF1514T4 (ssRNA)
RNA: GGUACCUCAAAUUGCGUGUUUUCAAGCAGUAUC
modifications: 2'-F on all C and U
In the case of B5, the binding signal (L-selectin (LS-Rg) [6]) is reported as < 2 fold weaker than LF1514.

B6: LD227X1 (ssDNA)
DNA: CGCGCGTTACAAGGTGCTAAACGTAACGTACTTGCTTACTCGCG
In the case of B6, the binding signal (L-selectin (LS-Rg) [7]) is reported as ~1 fold.

B7: LF1514T1 (ssRNA)
RNA: UGCGUGUUUUCAAGCA
modifications: 2'-F on all C and U
In the case of B7, the binding signal (L-selectin (LS-Rg) [8]) is reported as ≥ 100 fold weaker than LF1514.

B8: LD201T1 (ssDNA)
DNA: TAGCCAAGGTAACCAGTACAAGGTGCTAAACGTAATGGCTTCGGCTTAC
B8 showed a Kd [9] of 3 nM and an IC50 (L-selectin (LS-Rg) [10]) of ~3 nM.

B9: bio-LD201T1/streptavidin (ssDNA)
DNA: B8 DNA
modifications: biotin, multivalent on streptavidin
For B9, the EC50 [11] was ~0.15 nM.

B10: LF1535 (ssRNA)
RNA: GGGAGGACGAUGCGGCAAUGUGUUUCUCAAAUUGCUUUCUCCCUUCAGACGACUCGCCCGA
modifications: 2'-F C and U
B10: no binding (soluble L-selectin).

B11: PF377s1 (ssRNA)
RNA: CUCAACGAGCCAGGAACAUCGACGUCAGCAAACGCGAG
modifications: 2'-F on all C and U
B11 showed an EC50 [12] of ~0.05 nM and a Kd (P-selectin (PS-Rg) [13]) of 0.06 nM.

B12: PF377 (ssRNA)
RNA: GGGAGACAAGAAUAAACGCUCAACGAGCCAGGAACAUCGACGUCAGCAAACGCGAGCGCAACCAGUAACACCUUCGACAGGAGGCUCACAACAGGC
modifications: 2'-F on all C and U
B12 gave a Kd (E-selectin (ES-Rg) [14]) of 2300 nM and a Kd (P-selectin (PS-Rg) [15]) of 0.0185 nM.

B13: LF1512 (ssRNA)
RNA: GGGAGGACGAUGCGGCACACGUGUUUUCAAGUGUGCUCCUGGGAUCAGACGACUCGCCCGA
modifications: 2'-F on all C and U
In the case of B13, the Kd (L-selectin (LS-Rg) [16]) is reported as 315 nM.

B14: LD201T10 (ssDNA)
DNA: CGCGGTAACCAGTACAAGGTGCTAAACGTAATGGCGCG
B14 was tested, and the binding signal (L-selectin (LS-Rg) [17]) was ~1 fold.
